# Laboratory results as given in patent publication US20190367616A1.
# pKd: −log10 of the molar value.
# Key:
# [1] = molecular target: human PD-1 expressed on CHO-S cells (human) (UniProt Q15116); experiment: flow cytometry PD-L1 blocking assay on CHO-S cells transiently expressing human PD-1; non-specific control antibody; ligand R-PE PD-L1-Fc (16.4 nM final)
# [2] = molecular target: cynomolgus PD-1 ECD (Acro Biosystems cat. no. PD1-05223) (cynomolgus) (UniProt B0LAJ3); experiment: SPR, antibody on sensor, monomeric PD-1 ECD in solution
# cynomolgus PD-1 ECD (Acro Biosystems cat. no. PD1-05223) (cynomolgus), sequence (B0LAJ3 entry or part of it limits assumed): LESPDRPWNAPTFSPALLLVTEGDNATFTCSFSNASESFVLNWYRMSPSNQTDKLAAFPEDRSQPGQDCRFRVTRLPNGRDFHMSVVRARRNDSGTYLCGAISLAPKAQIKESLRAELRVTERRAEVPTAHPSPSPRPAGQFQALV
# human PD-1 expressed on CHO-S cells (human), sequence (Q15116 25-288): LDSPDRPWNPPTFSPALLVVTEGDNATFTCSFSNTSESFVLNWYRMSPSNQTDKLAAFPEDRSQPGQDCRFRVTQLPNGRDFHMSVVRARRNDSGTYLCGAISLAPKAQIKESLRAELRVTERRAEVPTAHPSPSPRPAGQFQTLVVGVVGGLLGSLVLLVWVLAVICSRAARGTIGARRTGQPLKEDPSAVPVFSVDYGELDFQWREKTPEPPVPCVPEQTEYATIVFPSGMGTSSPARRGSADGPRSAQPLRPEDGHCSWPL
Substance,% of cells hu IgG binding negative / PD-L1 binding negative (lower left quadrant) [1] [%],% of cells hu IgG binding negative / PD-L1 binding positive (lower right quadrant) [1] [%],"% of cells hu IgG binding positive / PD-L1 binding negative (upper left quadrant, 'blocking') [1] [%]",pKd [2]
control mAb (antibody),66.5,32.6,0.28,–
nivolumab analogue (antibody),–,–,–,8.82
pembrolizumab/Keytruda (antibody),–,–,–,8.44
